Test results taken from article PMC10764318 (Nature Communications, 2024).
Changes are numbered by the printed parent chain.

B1: WRAIR-5021 (antibody, V domains shown)
VH: QVQLQESGPGLVKPSETLSLTCAVSGYSISSGYYWGWIRQPPGKGLEYIGYFSGTTGSTYYNPSLKSRVTISKDTSKNQFSLKLNSVTAADTAVYYCARQPPRFDVWGPGVLVTVST
VL: DIQMTQSPSSLSASVGDTVTITCRASQGISNFLNWYQQKPGKAPKLLIYDASRLESGVPSRFSGSGSGTEFTLTISSLQPEDFATYHCLQYDSDPFTFGPGTKLDIKR
notes: also called CoV_5021; source: Expi293F, transfected, purified (Protein A magnetic beads)
B2: WRAIR-5005 (antibody, V domains shown)
VH: QVQLQESGPGLVKPSETLSLTCAVSGSSVNSGYGWTWLRQPPGKGLEWIGYIGGGSGSTIYNPSLKSRLTISKDTSKNQFSLKLSSVTAADTAVYYCASLDYGTTYSWFDVWGPGVLVTVSS
VL: SYELTQPRSVSVSPGQMARITCGGDNIGSKSVQWYQHKPPQAPVLVIYADSERPSGIPERFSGSNSGNTATLTISGVEAGDEADYYCQVWDSSSDVLFGGGTRLTVLG
notes: also called CoV_5005; source: Expi293F, transfected, purified (Protein A magnetic beads)
B3: WRAIR-5004 (antibody, V domains shown)
VH: QVQLVQSGAEIKQPGASVKLSCKASGYTFTTYYIHWVRQAPGQGLEWIGLISPYNGNRGYAQNFQGRVTITTDTSTSTGYMELSSLRSEDTAVYYCTRERVVAAAGYFDYWGQGVLVTVSS
VL: SYELTQPPSVSVSPGQTARITCGGDNIGSKNVQWYQQKPAQAPVLVIYDDSERPSGIPERFSGSNSGNTATLTISGVEAGDEAGYSCQVWDSSPDHYIFGAGTRLTVLG
notes: also called CoV_5004; source: Expi293F, transfected, purified (Protein A magnetic beads)
B4: WRAIR-5011 (antibody, V domains shown)
V domain 1: EVQLVQSGAEIKQPGASVKLSCKASGYTFTSYYIHWVRQAPGQGLEWIGLISPYNGNRAYAQNFQGRVTITTDTSTSTVYMELSSLKSEDTAVYYCAGEEYSNYGYFDLWGPGTPITISS
V domain 2: B3 VL with G84D, S86Y, P94G
notes: also called CoV_5011; source: Expi293F, transfected, purified (Protein A magnetic beads)
B5: WRAIR-5001 (antibody, V domains shown)
VH: QVQLVQSGAEVKKPGASVKLSCKASGYTFTSYSINWVRQAPGQGLEWMGWVNPSNGVTVYAQKFQGRVTMTRDTSTSTAYMELSSLRFEDTAVYYCARERDQLVVYFDHWGQGALVTVSS
VL: SYELTQPRSVSVSPGQTARITCGGDNIASKNVHWYQQKLAQAPVLVIYYDSDRPSGIPERFSGSNSGNTATLTISGVEAGDEADYYCQVWDSYSGHHVLFGGGTRLTVLG
notes: also called CoV_5001; source: Expi293F, transfected, purified (Protein A magnetic beads)
B6: WRAIR-5020 (antibody, V domains shown)
VH: QVQLQESGPGLVKPSETLSLTCAVSGASISSYWWGWIRQPPGKGLEWIGRISGSSGSTSYNPSLKSRVTISTDTSKNQFSLKLSSVTAADTAVYYCASRITIFGLLRSYWGQGVLVTVSS
VL: EIVMTQSPATLSLSPRERATLSCRASQSVSSNLAWYQQKPGQAPRLLIYYASNRATGIPDRFSGSGSGTDFTLTISSLEPEDVGLYYCQQESNWPWTFGQGTKVEIKR
notes: also called CoV_5020; source: Expi293F, transfected, purified (Protein A magnetic beads)
B7: LY-CoV-555 (antibody, V domains shown)
VH: QVQLVQSGAEVKKPGSSVKVSCKASGGTFSNYAISWVRQAPGQGLEWMGRIIPILGIANYAQKFQGRVTITADKSTSTAYMELSSLRSEDTAVYYCARGYYEARHYYYYYAMDVWGQGTAVTVSS
VL: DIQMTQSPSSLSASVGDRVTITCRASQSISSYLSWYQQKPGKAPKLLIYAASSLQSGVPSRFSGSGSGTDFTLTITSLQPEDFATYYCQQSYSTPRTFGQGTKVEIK
notes: control antibody, IgG1; also called antigen site E (Class II); source: Expi293F, purified; expressed as human IgG1
B8: CB6 (antibody, V domains shown)
VH: EVQLVESGGGLVQPGGSLRLSCAASGFTVSSNYMSWVRQAPGKGLEWVSVIYSGGSTFYADSVKGRFTISRDNSMNTLFLQMNSLRAEDTAVYYCARVLPMYGDYLDYWGQGTLVTVSS
VL: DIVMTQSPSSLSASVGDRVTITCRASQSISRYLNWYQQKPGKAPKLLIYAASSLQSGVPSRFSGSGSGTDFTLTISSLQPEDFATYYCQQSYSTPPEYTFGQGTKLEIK
notes: control antibody, IgG1; also called antigen site B (Class I); source: Expi293F, purified; expressed as human IgG1
B9: A19-61.1 (antibody, V domains shown)
VH: QVQLVESGGGVVQPGRSLRLSCAASGFTFSSYAFHWVRQAPGKGLEWVAVISYDGSNQYYADSVKGRFTISRDNSKNTLYLQMNSLRADDTAVYYCARDLAIAVAGTWHYYNGMDVWGQGTTVTVSS
VL: DIQMTQSPSSVSASVGDRVIITCRASQGISSWLAWYQQKPGKAPKVLIYDASSLQSGVPSRFSGSGYGTDFTLTISSLQPEDSATYYCQQAKSFPITFGQGTRLEIK
notes: control antibody, IgG1; also called antigen site F (Class III); source: Expi293F, purified; expressed as human IgG1
B10: A19-46.1 (antibody, V domains shown)
VH: QVQLVESGGGVVQPGRSLRLSCAASGFTLSSYGMHWVRQAPGKGLEWVAVISYDGSNKYYVDSVKGRFTISRDNSKNTLYLQMNSLRAEDTAVYYCARGWAYWELLPDYYYGMDVWGQGTTVTVSS
VL: QTVVTQEPSFSVSPGGTVTLTCGLSSGSVSTAYFPSWYQQTPGQAPRTLIYGTNTRSSGVPDRFSGSILGNKAALTITGAQADDESDYYCVLYMGRGIVVFGGGTKLTVL
notes: control antibody, IgG1; also called antigen site D (Class II); source: Expi293F, purified; expressed as human IgG1

The binders below were run against T1, SARS-CoV-2 WA-1 RBD (SARS-CoV-2, UniProt P0DTC2 331-527) (assay: BLI). Conditions: both partners purified.
T1 construct: source: Expi293F, purified (Ni-NTA)

B1 and B2 are within 1.5-fold of each other in Kd: 1.09 ± 0.007 nM for the first, 1.14 ± 0.013 nM for the second.

B3 and B4 are within 1.5-fold of each other in Kd: 0.72 ± 0.015 nM for the first, 0.69 ± 0.013 nM for the second.

B6 showed a Kd of 13 ± 0.1 nM.

B1 and B2 are within 1.5-fold of each other in koff: 0.000353 s⁻¹ for the first, 0.000238 s⁻¹ for the second.

B3 and B4 are within 1.5-fold of each other in koff: 0.000154 s⁻¹ for the first, 0.000147 s⁻¹ for the second.

Going from B5 to B6, the koff rises from 0.000119 s⁻¹ to 0.00273 s⁻¹ (23-fold).

Compared with B1, B2 is 1.6-fold lower in kon: 325000 M⁻¹ s⁻¹ for the first, 209000 M⁻¹ s⁻¹ for the second.

B3 and B4 are within 1.5-fold of each other in kon: 199000 M⁻¹ s⁻¹ for the first, 215000 M⁻¹ s⁻¹ for the second.

B5 and B6 are within 1.5-fold of each other in kon: 209000 M⁻¹ s⁻¹ for the first, 210000 M⁻¹ s⁻¹ for the second.

What follows are binders tested against T2, SARS-CoV-2 RBD (318-514), Avi-tagged, biotinylated (SARS-CoV-2, UniProt P0DTC2, biotin (BirA biotinylation kit)) (assay: BLI). Conditions: both partners purified.
T2 construct: source: Expi293F, purified (Ni-NTA); biotinylated with the BirA kit

B7: binds.
B8: binds.
B9: binds.
B10: binds.
